Test results from the supplement of paper PMC11246515.
± gives the standard deviation of the averaged measurements.

Assay: total protein half-life in vivo (active degradation + dilution); higher = more stable protein
[1] = E. coli NCM3722 delta-clpP delta-lon delta-hslV, growth: N-lim chemostat, doubling time 6 h
[2] = E. coli NCM3722 delta-clpP, growth: N-lim chemostat, doubling time 6 h
[3] = E. coli NCM3722 delta-smpB, growth: N-lim chemostat, doubling time 6 h
[4] = wild type E. coli NCM3722, growth: N-lim chemostat, doubling time 6 h
[5] = wild type E. coli NCM3722, growth: P-lim chemostat, doubling time 12 h
[6] = E. coli NCM3722 delta-hslV, growth: N-lim chemostat, doubling time 6 h
[7] = E. coli NCM3722 delta-lon, growth: N-lim chemostat, doubling time 6 h
[8] = wild type E. coli NCM3722, growth: C-lim chemostat, doubling time 3 h
[9] = wild type E. coli NCM3722, growth: C-lim chemostat, doubling time 6 h
[10] = wild type E. coli NCM3722, growth: C-lim chemostat, doubling time 12 h
[11] = wild type E. coli NCM3722, growth: N-lim chemostat, doubling time 12 h
[12] = wild type E. coli NCM3722, growth: P-lim chemostat, doubling time 6 h

Row | Sequence | total protein half-life in vivo [1] [h] | total protein half-life in vivo [2] [h] | total protein half-life in vivo [3] [h] | total protein half-life in vivo [4] [h] | total protein half-life in vivo [5] [h] | total protein half-life in vivo [6] [h] | total protein half-life in vivo [7] [h] | total protein half-life in vivo [8] [h] | total protein half-life in vivo [9] [h] | total protein half-life in vivo [10] [h] | total protein half-life in vivo [11] [h] | total protein half-life in vivo [12] [h]
1 | MSRLSPVNQARWARFRHNRRGYWSLWIFLVLFGLSLCSELIANDKPLLVRYDGSWYFPLLKNYSESDFGGPLASQADYQDPWLKQRLENNGWVLWAPIRFGATSINFATNKPFPSPPSRQNWLGTDANGGDVLARILYGTRISVLFGLMLTLCSSVMGVLAGALQGYYGGKVDLWGQRFIEVWSGMPTLFLIILLSSVVQPNFWWLLAITVLFGWMSLVGVVRAEFLRTRNFDYIRAAQALGVSDRSIILRHMLPNAMVATLTFLPFILCSSITTLTSLDFLGFGLPLGSPSLGELLLQGKNNLQAPWLGITAFLSVAILLSLLIFIGEAVRDAFDPNKAV | 6 | 6.1 | 5.43 ± 0.61 | 6.44 | 13.2 | – | – | – | – | – | – | –
2 | MSRPRRRGRDINGVLLLDKPQGMSSNDALQKVKRIYNANRAGHTGALDPLATGMLPICLGEATKFSQYLLDSDKRYRVIARLGQRTDTSDADGQIVEERPVTFSAEQLAAALDTFRGDIEQIPSMYSALKYQGKKLYEYARQGIEVPREARPITVYELLFIRHEGNELELEIHCSKGTYIRTIIDDLGEKLGCGAHVIYLRRLAVSKYPVERMVTLEHLRELVEQAEQQDIPAAELLDPLLMPMDSPASDYPVVNLPLTSSVYFKNGNPVRTSGAPLEGLVRVTEGENGKFIGMGEIDDEGRVAPRRLVVEYPA | 5.81 ± 0.72 | 4.93 ± 0.41 | 4.29 ± 0.17 | 4.89 ± 0.18 | 12.2 ± 2.5 | 4.51 ± 0.27 | 4.83 ± 0.34 | 3.06 ± 0.59 | 5.2 ± 0.55 | 9.72 ± 0.41 | 7.6476 ± 0.0051 | 5.59 ± 0.17
3 | MSRRVATITLNPAYDLVGFCPEIERGEVNLVKTTGLHAAGKGINVAKVLKDLGIDVTVGGFLGKDNQDGFQQLFSELGIANRFQVVQGRTRINVKLTEKDGEVTDFNFSGFEVTPADWERFVTDSLSWLGQFDMVCVSGSLPSGVSPEAFTDWMTRLRSQCPCIIFDSSREALVAGLKAAPWLVKPNRRELEIWAGRKLPEMKDVIEAAHALREQGIAHVVISLGAEGALWVNASGEWIAKPPSVDVVSTVGAGDSMVGGLIYGLLMRESSEHTLRLATAVAALAVSQSNVGITDRPQLAAMMARVDLQPFN [P0AEW9] | 5.41 ± 0.1 | 6.29 ± 0.82 | 5.34 ± 0.068 | 5.61 ± 0.2 | 13.5 ± 2.4 | 6.11 ± 0.88 | 5.57 ± 1.3 | 3.11 ± 0.06 | 7.05 ± 0.084 | 12.2 ± 0.77 | 10.74 ± 0.098 | 6.22 ± 0.24
4 | MSRSLLTNETSELDLLDQRPFDQTDFDILKSYEAVVDGLAMLIGSHCEIVLHSLQDLKCSAIRIANGEHTGRKIGSPITDLALRMLHDMTGADSSVSKCYFTRAKSGVLMKSLTIAIRNREQRVIGLLCINMNLDVPFSQIMSTFVPPETPDVGSSVNFASSVEDLVTQTLEFTIEEVNADRNVSNNAKNRQIVLNLYEKGIFDIKDAINQVADRLNISKHTVYLYIRQFKSGDFQGQDK | 6.19 ± 0.97 | 4.65 ± 0.54 | 3.38 ± 0.41 | 3.36 ± 0.46 | 6.94 ± 0.43 | 3.52 ± 0.076 | 3.21 ± 0.28 | 2.482 ± 0.004 | 4.69 ± 1.3 | 6.93 ± 0.81 | 4.95 ± 1.1 | 3.94 ± 0.15
5 | MSRSQNLRHNVINQVIDDMARGHIPSPLPSQSALAEMYNISRTTVRHILSHLRECGVLTQVGNDYVIARKPDHDDGFACTTASMSEQNKVFEQAFFTMINQRQLRPGETFSELQLARAAGVSPVVVREYLLKFGRYNLIHSEKRGQWSMKQFDQSYAEQLFELREMLETHSLQHFLNLPDHDPRWLQAKTMLERHRLLRDNIGNSFRMFSQLDRDFHSLLLSAADNIFFDQSLEIISVIFHFHYQWDESDLKQRNIIAVDEHMTILSALICRSDLDATLALRNHLNSAKQSMIRSINENTRYAH | – | – | – | – | – | – | – | 0.713 | 1.15 | – | – | –
6 | MSRTIFCTFLQREAEGQDFQLYPGELGKRIYNEISKEAWAQWQHKQTMLINEKKLNMMNAEHRKLLEQEMVNFLFEGKEVHIEGYTPEDKK [P0A8P3] | 6.2 ± 0.24 | 4.957 ± 0.0071 | 3.99 ± 0.37 | 3.63 ± 0.074 | 9.27 ± 1.4 | 4.94 ± 1.4 | 5.01 ± 0.2 | 3.07 ± 0.31 | 5.14 ± 0.14 | 8.58 ± 1.5 | 6.39 ± 0.51 | 5.7
7 | MSRTTTVDGAPASDTDKQSISQPNQFIKRGTPQFMRVTLALFSAGLATFALLYCVQPILPVLSQEFGLTPANSSISLSISTAMLAIGLLFTGPLSDAIGRKPVMVTALLLASICTLLSTMMTSWHGILIMRALIGLSLSGVAAVGMTYLSEEIHPSFVAFSMGLYISGNSIGGMSGRLISGVFTDFFNWRIALAAIGCFALASALMFWKILPESRHFRPTSLRPKTLFINFRLHWRDRGLPLLFAEGFLLMGSFVTLFNYIGYRLMLSPWHVSQAVVGLLSLAYLTGTWSSPKAGTMTTRYGRGPVMLFSTGVMLFGLLMTLFSSLWLIFAGMLLFSAGFFAAHSVASSWIGPRAKRAKGQASSLYLFSYYLGSSIAGTLGGVFWHNYGWNGVGAFIALMLVIALLVGTRLHRRLHA | 1.3 | 1.36 ± 0.35 | 2.24 ± 0.1 | 1.42 ± 0.079 | 2.5 | 1.46 ± 0.017 | 1.1 ± 0.07 | – | – | – | 2.65 ± 0.55 | –
